Results reported in publication PMC6609509 (Molecular psychiatry, 2019).

Target: full-length recombinant ABI1 (UniProt Q8IZP0-5 1-476)
Assay: SPR

B1: Shank3 fragment 4 (aa 668–858), S685I (domain or fragment, mouse, UniProt Q4ACU6 668-858, looked up)
chain: EEDGARRRAPPPPKRAPITTLTLRSKSMTAELEELASIRRRKGEKLDEILAVAAEPTLRPDIADADSRAATVKQRPTSRRITPAEISSLFERQGLPGPEKLPGSLRKGIPRTKSVGEDEKLASLLEGRFPRSTSMQDTVREGRGIPPPPQTAPPPPPAPYYFDSGPPPTFSPPPPPGRAYDTVRSSFKPGL
fold increase in KD against wild-type fragment 4: ~4 fold
